Experimental data: patent publication US20250340654A1 (INTERVET, published 2025)

T1: Canine IL-31RA ECD-10His (canine, biotin-labeled in the Octet assay (site not stated))
T1 construct: The ELISA and Octet protocols say only 'IL-31RA' or 'canine IL-31RA'; also called cIL-31RA; canine IL-31 receptor alpha extracellular domain, HIS-tagged
T1 chain: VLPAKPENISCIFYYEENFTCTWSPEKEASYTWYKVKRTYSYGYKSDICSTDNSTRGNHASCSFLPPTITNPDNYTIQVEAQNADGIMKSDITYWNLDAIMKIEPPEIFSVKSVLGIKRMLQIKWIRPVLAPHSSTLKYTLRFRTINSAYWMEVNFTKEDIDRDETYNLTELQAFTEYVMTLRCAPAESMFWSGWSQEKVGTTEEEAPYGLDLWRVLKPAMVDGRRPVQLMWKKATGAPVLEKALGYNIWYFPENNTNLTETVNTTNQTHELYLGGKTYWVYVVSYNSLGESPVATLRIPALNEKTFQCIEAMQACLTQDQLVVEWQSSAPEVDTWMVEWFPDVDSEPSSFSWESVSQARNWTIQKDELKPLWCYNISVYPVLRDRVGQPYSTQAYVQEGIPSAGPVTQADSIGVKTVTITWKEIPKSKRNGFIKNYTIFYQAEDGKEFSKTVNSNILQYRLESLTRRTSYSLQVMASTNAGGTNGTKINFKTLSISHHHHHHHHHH


Key:
Canine IL-31RA ECD-10His [1] = target: T1, Canine IL-31RA ECD-10His; experiment: ELISA on coated canine IL-31RA, anti-canine IgG Fc-HRP (Example 11), the unit is that of the x axis 'Ab Log Conc. (ng/mL)'
Description: 1. Coat 200 ng/well of IL-31RA on an immunoplate and incubate the plate at 4° C. overnight. [0257] 2. Wash the plate 3 times with phosphate buffered saline (PBS) containing 0.05% Tween 20 (PBST). […] 3. Block the plate with 0.5% bovine serum albumin (BSA) in PBS for 45-60 min at room temperature. [0259] 4. Wash the plate 3 times with PBST. [0260] 5. Three-fold dilute the caninized antibody in each column or row of dilution plate starting at 0.3 μg/mL. [0261] 6. Transfer the diluted caninized antibody into each column or row of the immunoplate, and incubate the plate for 45-60 min at room temperature. [0262] 7. Wash the plate 3 times with PBST. [0263] 8. Add 1:4000 diluted horseradish peroxidase labeled anti-canine IgG Fc into each well of the plate, and then incubate the plate for 45-60 min at room temperature. [0264] 9. Wash the plate 3 times with PBST. [0265] 10. Add 3,3′,5,5′-tetramethylbenzidine (TMB) Substrate into each well of the plate, and incubate the plate for 10 to 15 min at room temperature to develop the color. [0266] 11. Add 100 μL 1.5 M phosphoric acid into each well to stop the reaction. Read plate at 450 nm with 540 nm reference wavelength.
As depicted in FIGS. 7A-7E, the caninized antibodies were tested for their reactivity to canine IL-31RA.

Canine IL-31RA ECD-10His [2] = target: T1, Canine IL-31RA ECD-10His; experiment: BLI (Octet HTX), biotin-labeled canine IL-31RA on SA biosensors, 1:1 fit
Description: These constants reflect the binding affinity of the individual monoclonal antibodies for canine IL-31 RA.
(§1) All kinetics measurements were performed by Octet HTX using SA biosensors and Data Acquisition 12.0 software. A biotin-labeled antigen (canine IL-31RA) was loaded onto the pre-rehydrated SA biosensors for 120s at a concentration of 1 μg/mL. Next, the biosensors were placed into Octet Kinetics Buffer (PBS+0.02% Tween 20, 0.1% BSA) for the blocking phase for 120s. Then, for the association phase, antigen loaded biosensors were placed into 2-fold serial dilutions from 100 nM down to 3.13 nM of anti-IL-31RA monoclonal antibody in Octet Kinetics Buffer for 300s. The last well was buffer alone and that sensor was used for reference sensor subtraction. Finally, the biosensors were placed into Octet Kinetics Buffer for the dissociation phase for 300s. Analysis was performed using Data Analysis 12.0 software and curves were fitted using a 1:1 binding model.

Canine IL-31RA ECD-10His [3] = target: T1, Canine IL-31RA ECD-10His; experiment: BLI (Octet), biotin-labeled canine IL-31RA on SA biosensors
Description: as §1
Two of the top blocking antibodies: 51F8 and 218D9, had KDs of about 0.2 nM and about 0.07 nM respectively (see, Table 5B below).

Binder | EC50 (Canine IL-31RA ECD-10His [1]) [ng/mL] | Kd (Canine IL-31RA ECD-10His [2]) [nM] | koff (Canine IL-31RA ECD-10His [2]) [s⁻¹] | kon (Canine IL-31RA ECD-10His [2]) [M⁻¹ s⁻¹] | Kd (Canine IL-31RA ECD-10His [3]) [nM] | koff (Canine IL-31RA ECD-10His [3]) [s⁻¹] | kon (Canine IL-31RA ECD-10His [3]) [M⁻¹ s⁻¹]
Chimeric 100H8 (antibody, V domains shown, also called murine-canine chimeric 100H8) VH: EVQLQQSGPELVKPGASVKIPCKASGYTFTDYNMDWVKQSHGKSLEWIGHINPNNGGILYNQKFKGKATLTVDRSSNTAYMELRSLTSEDTAVYFCARWAPLVRQPYWYFDVWGTGTTVTVSS VL: DIKMTQSPSSIFASLGERVTITCKASQDINSYLNWFQQKPGKSPKTLIYRADRLVDGVPSRFSGSGSGQDYSLTISSLEYEDMGIYYCLQYDEFPLTFGAGTKLELN | 2.02 |  |  |  |  |  | 
100H8 (antibody, V domains shown, Mouse monoclonal antibody from a hybridoma; also called mouse mAb 100H8) VH: EVQLQQSGPELVKPGASVKIPCKASGYTFTDYNMDWVKQSHGKSLEWIGHINPNNGGILYNQKFKGKATLTVDRSSNTAYMELRSLTSEDTAVYFCARWAPLVRQPYWYFDVWGTGTTVTVSS VL: DIKMTQSPSSIFASLGERVTITCKASQDINSYLNWFQQKPGKSPKTLIYRADRLVDGVPSRFSGSGSGQDYSLTISSLEYEDMGIYYCLQYDEFPLTFGAGTKLELN |  | 0.152 | 0.00012 | 788000 |  |  | 
222E7 (antibody, V domains shown, Mouse monoclonal antibody from a hybridoma; also called mouse mAb 222E7) VH: EVQLQQSGPELVKPGSSVKIPCKASGYTFTDYNMDWVKQSHGKSLEWIGHINPNIGGTLYNQKFKGKATLSVDKSSSTAYMELRSLTSEDTAVYYCARWAQLQRQPYWYFDVWGPGTTVTVSS VL: DIKMTQSPSSMYASLGERVTITCKASQDINSYLNWFQQKPGKSPKTLIYRVNRLVDGVPSRFSGSGSGQDYSLTISSLEYEDMGIYYCLQYDEFPLTFGAGTKLELK |  | 0.174 | 0.000282 | 1.62e+06 |  |  | 
74H10 (antibody, V domains shown, Mouse monoclonal antibody from a hybridoma; also called mouse mAb 74H10) VH: EVQLQQSGPELVKPGASMKIPCKTSGYTFTDYNMDWVKQSHGKSLEWIGHINPNNGGTLYNQKFKDKATLTVDRSSNTAYMELRSLTSEDTAVYYCARWAPLLRQPYWYFDVWGTGTTVTVSS VL: DIKMTQSPSSMYASLGERVTITCKASQDINSYLNWFQQKPGKSPKTLIYRADRLVDGVPSRFSGSGSGQDYSLTISSLEYEDMGIYYCLQYDEFPLTFGDGTKLELN |  | 0.196 | 9.05e-05 | 463000 |  |  | 
55B3 (antibody, V domains shown, Mouse monoclonal antibody from a hybridoma; also called mouse mAb 55B3) VH: EVQLQQSGPELVKPGASVKIPCKASGYTFTDYNMDWVKQSHGKSLEWIGHINPNTGGTIYNQKFKGKATLTVDKSSSTAYMDLRSLTSEDTAVYYCARWAQLLRQPYWYFDVWGTGTTVTVSS VL: DIKMTQSPSSMYASLGERVTITCKASQDINSYFNWVQQKPGKSPKTLIFRANRLVDGVPSRFSGSGSGQDYSLTINSLEYEDMGIYYCLQYDEFPLTFGAGTKLELK |  | 0.272 | 0.000154 | 568000 |  |  | 
51F8 (antibody, V domains shown, Mouse monoclonal antibody from a hybridoma; also called mouse mAb 51F8) VH: EVQLQQSVAELVRPGASVKLSCTASGFNIKNTFIHWVKQRPEQGLEWIGRIDPANGNTKYAPKFQGRATLTADTSSNTAYLQLSSLTSEDTAIYYCARYYYVSSYFDVWGTGTTVTVSS VL: SIVMTQTPKFLLVSAGDRVTITCKASQSVTNDVTWYQQKPGQSPKLLIFSASNRYTGVPDRFTGSGYGTDFTFTISTVQAEDLAVYFCQQDYSSPWTFGGGTKLEIK |  | 0.207 | 0.000141 | 684000 |  |  | 
Chimeric 51F8 (antibody, V domains shown, canine constant regions not specified; also called murine-canine chimeric 51F8) VH: EVQLQQSVAELVRPGASVKLSCTASGFNIKNTFIHWVKQRPEQGLEWIGRIDPANGNTKYAPKFQGRATLTADTSSNTAYLQLSSLTSEDTAIYYCARYYYVSSYFDVWGTGTTVTVSS VL: SIVMTQTPKFLLVSAGDRVTITCKASQSVTNDVTWYQQKPGQSPKLLIFSASNRYTGVPDRFTGSGYGTDFTFTISTVQAEDLAVYFCQQDYSSPWTFGGGTKLEIK | 3.42 |  |  |  | 0.207 | 0.000141 | 684000
c51F8VH3VL6 (antibody, V domains shown, Caninized antibody; chains tied by name to c51F8VH3-cIgGBm and c51F8VL6-cCK; also called c51F8VH3L6) VH: EVQLVQSGAEVKKPGASVKVSCTASGFNIKNTFIHWVRQAPGAGLDWIGRIDPANGNTKYAPKFQGRATLTADTSTNTAYMQLSSLRAGDIAVYYCARYYYVSSYFDVWGQGTLVTVSS VL: DIVMTQTPLSLSVSPGETASISCKASQSVTNDVTWFRQKPGQSPQLLIYSASNRYTGVPDRFSGSGSGTDFTLRISTVEADDTGVYYCQQDYSSPWTFGQGTKLEIKR | 16.9 |  |  |  | 2.67 | 0.00114 | 428000
c51F8VH4VL6 (antibody, V domains shown, Caninized antibody; chains tied by name to c51F8VH4-cIgGBm and c51F8VL6-cCK; also called c51F8VH4L6) VH: EVQLVQSGAEVVKPGASVKVSCTASGFNIKNTFIHWVRQRPGAGLDWIGRIDPANGNTKYAPKFQGRATLTADTSTNTAYMQLSSLRAGDIAVYYCARYYYVSSYFDVWGTGTLVTVSS VL: DIVMTQTPLSLSVSPGETASISCKASQSVTNDVTWFRQKPGQSPQLLIYSASNRYTGVPDRFSGSGSGTDFTLRISTVEADDTGVYYCQQDYSSPWTFGQGTKLEIKR | 8.31 |  |  |  | 1.01 | 0.000448 | 445000
c51F8VH3VL7 (antibody, V domains shown, Caninized antibody; chains tied by name to c51F8VH3-cIgGBm and c51F8VL7-cCK; also called c51F8VH3L7) VH: EVQLVQSGAEVKKPGASVKVSCTASGFNIKNTFIHWVRQAPGAGLDWIGRIDPANGNTKYAPKFQGRATLTADTSTNTAYMQLSSLRAGDIAVYYCARYYYVSSYFDVWGQGTLVTVSS VL: DIVMTQTPLSLSVSPGETASISCKASQSVTNDVTWFRQKPGQSPKLLIYSASNRYTGVPDRFSGSGSGTDFTLRISTVEADDTGVYYCQQDYSSPWTFGQGTKLEIKR | 25 |  |  |  | 3.99 | 0.0016 | 401000
Chimeric 85C10 (antibody, V domains shown, canine constant regions not specified; also called murine-canine chimeric 85C10) VH: EFQLQQSGPELVKPGASVKISCKASGYSFTDYSINWVKQSNGKSLEWIGVINPNYGTSSHNQKFKGKATMTVDQSSSTAYMQLNSLTSEDSAVYYCARALDDYYFYWYFDVWGIGTTVTVSS VL: DVVMTQTPLSLPVSLGDQASISCRSSQSLVHTNGNTYLHWYLQKPGQSPKLLIYKVSNRFSGVPDRFSGSGSGTDFTLKISRVEAEDLGVYFCSQTTHVPLTFGAGTKLELK | 2.58 |  |  |  |  |  | 
65G9 (antibody, V domains shown, Mouse monoclonal antibody from a hybridoma; also called mouse mAb 65G9) VH: EFQLQQSGPELVKPGASVKISCKASGYSFTDYGMNWLKQINGKSLEWIAIINPNYGTASSNPKFKDKATLTVDHSSSTAYMQLSSLTSEDSAVYYCARAFDGYYFYWYFDVWGTGTTVTVSS VL: DVVMTQTPLSLPVSLGDQASISCRSSQSLIHTNGNTYLHWYLQKPGQSPKLLIYKVSNRFSGVPDRFSGSGSGTDFTLKISRLEAEDLGVYFCSQSTHVPLTFGAGTKLELR |  | 0.451 | 0.000355 | 787000 |  |  | 
Chimeric 224G3 (antibody, V domains shown, canine constant regions not specified; also called m224G3 Chim) VH: EVQLVESGGDLVKPGGSLKLSCAASGFTFSSYGMSWVRQTPDKRLEWVATISNGGSYTYYPDSVKGRFTISRDNAKNTLYMQMSSLKSEDTAMYYCARNEPPDYWGQGTSVTVSS VL: QIVLTQSPAIMSASLGERVTMTCTASSSVGSSYLHWYQQKPGSSPKLWIYDTSNLASGVPVRFSGSGSGTSYSLTISSMEAEDAATYYCHQYHRSPYTFGGGTKLEIK | 0.383 |  |  |  |  |  | 
c100H8VH7VL4 (antibody, V domains shown, Caninized antibody; chains tied by name to c100H8VH7-cIgGBm and c100H8VL4-cCK; also called c100H8VH7L4) VH: EVQLVQSGAEVKKPGASVKVSCKASGYTFTDYNMDWVRQAPGAGLDWIGHINPNNGGILYNQKFKGKATLTADTSTSTAYMELSSLRAGDIAVYYCARWAPLVRQPYWYFDVWGQGTLVTVSS VL: DIVMTQTPLSLSVSPGETASISCKASQDINSYLNWFRQKPGQSPQLLIYRADRLVDGVPDRFSGSGSGTDFTLRISTVEADDTGVYYCLQYDEFPLTFGAGTKVELKR | 0.581 |  |  |  |  |  | 
